Measurements as given in patent publication US20190151446A1 (LIVERPOOL SCHOOL OF TROPICAL MEDICINE, published 2019).

T1: human FcγRIIB (human, UniProt P31994 46-217)
T1 construct: Bought protein, construct not described
T1 sequence (looked up): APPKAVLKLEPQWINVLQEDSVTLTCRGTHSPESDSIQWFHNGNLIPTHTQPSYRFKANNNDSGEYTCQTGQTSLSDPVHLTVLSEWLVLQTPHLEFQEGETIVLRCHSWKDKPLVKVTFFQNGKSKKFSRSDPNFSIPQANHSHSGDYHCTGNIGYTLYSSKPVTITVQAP

T2: human FcγRIIA (human, UniProt P12318 36-218)
T2 construct: Bought protein, construct not described
T2 sequence (looked up): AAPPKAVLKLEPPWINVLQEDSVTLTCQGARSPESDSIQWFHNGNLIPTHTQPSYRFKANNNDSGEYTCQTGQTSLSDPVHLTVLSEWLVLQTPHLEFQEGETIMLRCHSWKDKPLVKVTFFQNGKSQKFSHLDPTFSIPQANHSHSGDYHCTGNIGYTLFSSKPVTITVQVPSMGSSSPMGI

T3: soluble recombinant tetrameric human DC-SIGN (human, UniProt Q9NNX6 66-404, limits assumed)
T3 construct: also called Dendritic Cell-Specific Intercellular adhesion molecule-3-Grabbing Non-integrin
T3 sequence (looked up): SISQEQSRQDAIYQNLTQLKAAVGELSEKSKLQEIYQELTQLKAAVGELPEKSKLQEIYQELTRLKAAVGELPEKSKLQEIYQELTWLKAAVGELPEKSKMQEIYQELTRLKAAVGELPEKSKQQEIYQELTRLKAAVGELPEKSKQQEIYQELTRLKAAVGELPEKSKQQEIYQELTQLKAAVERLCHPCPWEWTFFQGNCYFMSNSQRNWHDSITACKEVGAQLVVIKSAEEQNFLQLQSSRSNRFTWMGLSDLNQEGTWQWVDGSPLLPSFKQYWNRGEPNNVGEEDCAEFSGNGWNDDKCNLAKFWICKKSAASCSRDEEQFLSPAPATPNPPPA

B1: human Siglec-1 (receptor, UniProt Q9BZZ2 20-1641, looked up)
chain: SWGVSSPQDVQGVKGSCLLIPCIFSFPADVEVPDGITAIWYYDYSGQRQVVSHSADPKLVEARFRGRTEFMGNPEHRVCNLLLKDLQPEDSGSYNFRFEISEVNRWSDVKGTLVTVTEEPRVPTIASPVELLEGTEVDFNCSTPYVCLQEQVRLQWQGQDPARSVTFNSQKFEPTGVGHLETLHMAMSWQDHGRILRCQLSVANHRAQSEIHLQVKYAPKGVKILLSPSGRNILPGELVTLTCQVNSSYPAVSSIKWLKDGVRLQTKTGVLHLPQAAWSDAGVYTCQAENGVGSLVSPPISLHIFMAEVQVSPAGPILENQTVTLVCNTPNEAPSDLRYSWYKNHVLLEDAHSHTLRLHLATRADTGFYFCEVQNVHGSERSGPVSVVVNHPPLTPVLTAFLETQAGLVGILHCSVVSEPLATLVLSHGGHILASTSGDSDHSPRFSGTSGPNSLRLEIRDLEETDSGEYKCSATNSLGNATSTLDFHANAARLLISPAAEVVEGQAVTLSCRSGLSPTPDARFSWYLNGALLHEGPGSSLLLPAASSTDAGSYHCRARDGHSASGPSSPAVLTVLYPPRQPTFTTRLDLDAAGAGAGRRGLLLCRVDSDPPARLQLLHKDRVVATSLPSGGGCSTCGGCSPRMKVTKAPNLLRVEIHNPLLEEEGLYLCEASNALGNASTSATFNGQATVLAIAPSHTLQEGTEANLTCNVSREAAGSPANFSWFRNGVLWAQGPLETVTLLPVARTDAALYACRILTEAGAQLSTPVLLSVLYPPDRPKLSALLDMGQGHMALFICTVDSRPLALLALFHGEHLLATSLGPQVPSHGRFQAKAEANSLKLEVRELGLGDSGSYRCEATNVLGSSNTSLFFQVRGAWVQVSPSPELQEGQAVVLSCQVHTGVPEGTSYRWYRDGQPLQESTSATLRFAAITLTQAGAYHCQAQAPGSATTSLAAPISLHVSYAPRHVTLTTLMDTGPGRLGLLLCRVDSDPPAQLRLLHGDRLVASTLQGVGGPEGSSPRLHVAVAPNTLRLEIHGAMLEDEGVYICEASNTLGQASASADFDAQAVNVQVWPGATVREGQLVNLTCLVWTTHPAQLTYTWYQDGQQRLDAHSIPLPNVTVRDATSYRCGVGPPGRAPRLSRPITLDVLYAPRNLRLTYLLESHGGQLALVLCTVDSRPPAQLALSHAGRLLASSTAASVPNTLRLELRGPQPRDEGFYSCSARSPLGQANTSLELRLEGVRVILAPEAAVPEGAPITVTCADPAAHAPTLYTWYHNGRWLQEGPAASLSFLVATRAHAGAYSCQAQDAQGTRSSRPAALQVLYAPQDAVLSSFRDSRARSMAVIQCTVDSEPPAELALSHDGKVLATSSGVHSLASGTGHVQVARNALRLQVQDVPAGDDTYVCTAQNLLGSISTIGRLQVEGARVVAEPGLDVPEGAALNLSCRLLGGPGPVGNSTFAWFWNDRRLHAEPVPTLAFTHVARAQAGMYHCLAELPTGAAASAPVMLRVLYPPKTPTMMVFVEPEGGLRGILDCRVDSEPLASLTLHLGSRLVASSQPQGAPAEPHIHVLASPNALRVDIEALRPSDQGEYICSASNVLGSASTSTYFGVRALHRLHQFQQ
notes: Construct not described; also called sialoadhesin; CD169

Columns and labels:
[1] = target: T4, monomeric IgG1-Fc control (human, UniProt P01857-1 104-330 = IgG part, limits assumed, N-linked glycan at Asn297); assay: ELISA (FIG. 12 B)
T4 construct: domain: Fc; also called wildtype IgG-Fc; wildtype IgG1-Fc

human FcγRIIB = target: T1, human FcγRIIB; assay: ELISA, receptor coated on plate
Experimental: (§1) ELISAs were used to investigate the binding of oligomeric Fc mutants to FcγRI, FcγRIIA, FcγRIIB, FcγRIIIA and FcγRIIIB (all from R&D laboratories). Receptors were coated down to ELISA plates (Nunc) in carbonate buffer pH9 (Sigma-Aldrich) at 2 μg/ml overnight at 4° C. Plates were then blocked in PBS/0.1% Tween-20 (PBST) containing 4% skimmed milk (Tesco). Plates were then washed three times in PBS/0.1% Tween-20 (PBST) before adding Fc mutants at the indicated concentrations in PBST overnight at 4° C. Plates were washed as above and incubated for 2 h with 1:500 dilution of an alkaline phosphatase conjugated goat Fab′₂ anti-human IgG (Jackson Laboratories). Plates were washed as above and developed for 15 min with 100 μl of a Sigmafast p-nitrophenyl phosphate solution (Sigma-Aldrich). Plates were read at 405 nm and data plotted with Graphpad prism.

human FcγRIIA = target: T2, human FcγRIIA; assay: ELISA, receptor coated on plate
Experimental: as §1

human FcγRIIIB = target: T5, human FcγRIIIB (human, UniProt O75015 17-200); assay: ELISA, receptor coated on plate
T5 construct: Bought protein, construct not described
Experimental: as §1

human FcγRIIIA [2] = target: T6, human FcγRIIIA (human, UniProt P08637 17-208); assay: ELISA, receptor coated on plate
T6 construct: Bought protein, construct not described; also called FcgRIIIA
Experimental: as §1

human FcγRI = target: T7, human FcγRI (human, UniProt P12314 16-288); assay: ELISA, receptor coated on plate
T7 construct: Bought protein, construct not described
Experimental: as §1

human FcγRIIIA [3] = target: T6, human FcγRIIIA; assay: ELISA, receptor coated on plate (FIG. 4)
Experimental: as §1

human Siglec-1 = target: B1; assay: ELISA (FIG. 12 B)
[4] = target: T3, soluble recombinant tetrameric human …; assay: ELISA, soluble tetrameric human DC-SIGN (FIG. 12 A)

T7 sequence (P12314 16-288 limits assumed): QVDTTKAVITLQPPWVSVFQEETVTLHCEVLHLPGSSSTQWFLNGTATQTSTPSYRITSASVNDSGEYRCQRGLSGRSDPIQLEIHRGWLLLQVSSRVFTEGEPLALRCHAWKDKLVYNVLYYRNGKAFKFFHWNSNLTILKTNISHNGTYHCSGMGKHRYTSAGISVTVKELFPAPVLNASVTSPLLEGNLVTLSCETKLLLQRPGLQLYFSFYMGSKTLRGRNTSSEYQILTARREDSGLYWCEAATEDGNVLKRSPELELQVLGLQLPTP
T5 sequence (O75015 17-200 limits assumed): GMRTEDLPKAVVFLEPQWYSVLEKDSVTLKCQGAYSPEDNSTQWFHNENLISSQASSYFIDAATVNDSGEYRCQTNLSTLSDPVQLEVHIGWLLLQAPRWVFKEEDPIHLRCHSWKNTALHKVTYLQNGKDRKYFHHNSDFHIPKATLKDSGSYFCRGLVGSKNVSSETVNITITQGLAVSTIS
T6 sequence (P08637 17-208 limits assumed): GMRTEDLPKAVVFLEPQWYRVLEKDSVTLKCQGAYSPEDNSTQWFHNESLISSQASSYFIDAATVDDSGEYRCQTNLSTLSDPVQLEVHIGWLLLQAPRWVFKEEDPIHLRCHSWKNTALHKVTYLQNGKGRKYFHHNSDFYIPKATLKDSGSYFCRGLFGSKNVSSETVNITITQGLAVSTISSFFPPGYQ

| binding result [1] | binding result (human FcγRIIB) | binding result (human FcγRIIA) | binding result (human FcγRIIIB) | binding result (human FcγRIIIA [2]) | binding result (human FcγRI) | binding result (human FcγRIIIA [3]) | binding result (human Siglec-1) | binding result [4] | Binder |
| --- | --- | --- | --- | --- | --- | --- | --- | --- | --- |
| no binding | – | – | – | – | – | – | – | – | B1 |
| – | no binding | no binding | no binding | no binding | no binding | – | – | – | D221N mutant of hexa-Fc (Fc fusion, N-linked glycans at Asn221 (N1), Asn297 (N77) and Asn563 (N236), Made on the hexa-Fc template in CHO-K1 cells; multimeric, hyper-sialylated) NKTHTCPPCPAPELLGGPSVFLFPPKPKDTLMISRTPEVTCVVVDVSHEDPEVKFNWYVDGVEVHNAKTKPREEQYNSTYRVVSVLTVCLQDWLNGKEYKCKVSNKALPAPIEKTISKAKGQPREPQVYTLPPSREEMTKNQVSLTCLVKGFYPSDIAVEWESNGQPENNYKTTPPVLDSDGSFFLYSKLTVDKSRWQQGNVFSCSVMHEALHNHYTQKSLSLSPGKLVLGPPLYNVSLVMSDTAGTCY |
| – | binds | binds | binds | – | binds | binds | – | – | D221N/N563A mutant of hexa-Fc (Fc fusion, N-linked glycans at Asn221 (N1) and Asn297 (N77), Made on the hexa-Fc template in CHO-K1 cells; runs as higher order multimers approximating dodecamers; also called D221/N563A; D221N/N563A dodecamer) NKTHTCPPCPAPELLGGPSVFLFPPKPKDTLMISRTPEVTCVVVDVSHEDPEVKFNWYVDGVEVHNAKTKPREEQYNSTYRVVSVLTVCLQDWLNGKEYKCKVSNKALPAPIEKTISKAKGQPREPQVYTLPPSREEMTKNQVSLTCLVKGFYPSDIAVEWESNGQPENNYKTTPPVLDSDGSFFLYSKLTVDKSRWQQGNVFSCSVMHEALHNHYTQKSLSLSPGKLVLGPPLYAVSLVMSDTAGTCY |
| – | – | – | – | – | – | – | no binding | – | N297A/N563A mutant of hexa-Fc (Fc fusion, no glycans attached, Made on the hexa-Fc template in CHO-K1 cells; Results-1 says it cannot form oligomers, Results-2 says it forms higher order multimers; also called glycan deficient mutant; N297A/N563A double-knockout) DKTHTCPPCPAPELLGGPSVFLFPPKPKDTLMISRTPEVTCVVVDVSHEDPEVKFNWYVDGVEVHNAKTKPREEQYASTYRVVSVLTVCLQDWLNGKEYKCKVSNKALPAPIEKTISKAKGQPREPQVYTLPPSREEMTKNQVSLTCLVKGFYPSDIAVEWESNGQPENNYKTTPPVLDSDGSFFLYSKLTVDKSRWQQGNVFSCSVMHEALHNHYTQKSLSLSPGKLVLGPPLYAVSLVMSDTAGTCY |
| – | no binding | no binding | no binding | no binding | no binding | – | – | – | N297A mutant of hexa-Fc (Fc fusion, N-linked glycan at Asn563 (N236), Made on the hexa-Fc template in CHO-K1 cells; still multimeric (pentamers and hexamers)) DKTHTCPPCPAPELLGGPSVFLFPPKPKDTLMISRTPEVTCVVVDVSHEDPEVKFNWYVDGVEVHNAKTKPREEQYASTYRVVSVLTVCLQDWLNGKEYKCKVSNKALPAPIEKTISKAKGQPREPQVYTLPPSREEMTKNQVSLTCLVKGFYPSDIAVEWESNGQPENNYKTTPPVLDSDGSFFLYSKLTVDKSRWQQGNVFSCSVMHEALHNHYTQKSLSLSPGKLVLGPPLYNVSLVMSDTAGTCY |
| – | no binding | no binding | no binding | no binding | no binding | – | – | no binding | D221N/N297A mutant of hexa-Fc (Fc fusion, N-linked glycans at Asn221 (N1) and Asn563 (N236), Made on the hexa-Fc template in CHO-K1 cells; multimeric) NKTHTCPPCPAPELLGGPSVFLFPPKPKDTLMISRTPEVTCVVVDVSHEDPEVKFNWYVDGVEVHNAKTKPREEQYASTYRVVSVLTVCLQDWLNGKEYKCKVSNKALPAPIEKTISKAKGQPREPQVYTLPPSREEMTKNQVSLTCLVKGFYPSDIAVEWESNGQPENNYKTTPPVLDSDGSFFLYSKLTVDKSRWQQGNVFSCSVMHEALHNHYTQKSLSLSPGKLVLGPPLYNVSLVMSDTAGTCY |
| – | – | – | – | – | – | – | – | no binding | D221N/N297A/N563A mutant of hexa-Fc (Fc fusion, N-linked glycan at Asn221 (N1), Made on the hexa-Fc template in CHO-K1 cells; higher order multimers; also called D221/N297A/N563A) NKTHTCPPCPAPELLGGPSVFLFPPKPKDTLMISRTPEVTCVVVDVSHEDPEVKFNWYVDGVEVHNAKTKPREEQYASTYRVVSVLTVCLQDWLNGKEYKCKVSNKALPAPIEKTISKAKGQPREPQVYTLPPSREEMTKNQVSLTCLVKGFYPSDIAVEWESNGQPENNYKTTPPVLDSDGSFFLYSKLTVDKSRWQQGNVFSCSVMHEALHNHYTQKSLSLSPGKLVLGPPLYAVSLVMSDTAGTCY |
